T1: purified recombinant human CD40L (human, UniProt P29965 113-261, limits assumed)
T1 construct: also called hCD40L; CD154
T1 sequence (looked up): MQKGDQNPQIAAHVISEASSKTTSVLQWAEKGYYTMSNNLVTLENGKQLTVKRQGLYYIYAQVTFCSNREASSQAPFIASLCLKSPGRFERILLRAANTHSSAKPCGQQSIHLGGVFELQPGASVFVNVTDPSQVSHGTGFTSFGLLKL


Biological target: T1, purified recombinant human CD40L
Assay: ELISA: recombinant human CD40L coated, detected with mouse anti-human IgG then HRP goat anti-mouse IgG
Experimental: Both antibodies were purified by conventional methods and the binding activity of both recombinantly expressed antibodies to hCD40L was assayed. To measure anti-hCD40L variants binding to hCD40L, purified recombinant human CD40L was bound to a 96-well ELISA-grade plate. After blocking, anti-hCD40L variants were added followed by mouse anti-human IgG then horseradish peroxidase-labeled goat anti-mouse IgG. TMB color development was then quantitated at 450 nm by an ELISA reader.

Row | binding result | Binder
1 | binds | Antibody A (anti-human CD40L IgG1 antibody with V215A and E269R mutations in the human IgG1 constant region) (antibody, V domains shown, Human IgG1 with V215A and E269R in the constant region, expressed in HEK-293 Freestyle cells; also called anti-hCD40L variant) VH: EVQLQESGPGLVKPSETLSLTCTVSGDSITNGFWIWIRKPPGNKLEYMGYISYSGSTYYNPSLKSRISISRDTSKNQFSLKLSSVTAADTGVYYCACRSYGRTPYYFDFWGQGTTLTVSS VL: DIVMTQSPSFLSASVGDRVTITCKASQNVITAVAWYQQKPGKSPKLLIYSASNRYTGVPDRFSGSGSGTDFTLTISSLQPEDFADYFCQQYNSYPYTFGGGTKLEIK
2 | binds | Antibody B (anti-human CD40L IgG1 antibody with V215A, E269R and K322A mutations in the human IgG1 constant region) (antibody, V domains shown, Human IgG1 with V215A, E269R and K322A in the constant region, expressed in HEK-293 Freestyle cells; also called anti-hCD40L variant) VH: EVQLQESGPGLVKPSETLSLTCTVSGDSITNGFWIWIRKPPGNKLEYMGYISYSGSTYYNPSLKSRISISRDTSKNQFSLKLSSVTAADTGVYYCACRSYGRTPYYFDFWGQGTTLTVSS VL: DIVMTQSPSFLSASVGDRVTITCKASQNVITAVAWYQQKPGKSPKLLIYSASNRYTGVPDRFSGSGSGTDFTLTISSLQPEDFADYFCQQYNSYPYTFGGGTKLEIK
